Measured values taken from IntAct's records for PubMed 22892567.

Target: cbx3_mouse Cbx3 (UniProt P23198)
Sequence (P23198 whole entry): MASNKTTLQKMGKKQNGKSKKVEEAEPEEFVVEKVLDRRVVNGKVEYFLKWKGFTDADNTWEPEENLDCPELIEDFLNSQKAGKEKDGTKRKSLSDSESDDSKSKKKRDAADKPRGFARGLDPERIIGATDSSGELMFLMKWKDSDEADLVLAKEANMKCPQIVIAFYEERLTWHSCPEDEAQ

Substance: Voltage-dependent L-type calcium channel subunit beta-4 (Rattus norvegicus (Rat)) (from UniProt D4A055) V222A
- effect of a mutation on the interaction: disrupting interaction

Substance: Voltage-dependent L-type calcium channel subunit beta-4 (Rattus norvegicus (Rat)) (from UniProt D4A055) P220A
- effect of a mutation on the interaction: disrupting interaction strength
